Where two headings read alike, the source gives them in different places.
Key:
human Claudin 9 [1] = target: T1, human Claudin 9 (human, UniProt O95484 1-217); test: flow cytometry, HEK293/H_CLDN9 cells, Ab titrated from 100 nM
T1 construct: whole, on cells; also called CLDN9; CLND9
T1 sequence (looked up): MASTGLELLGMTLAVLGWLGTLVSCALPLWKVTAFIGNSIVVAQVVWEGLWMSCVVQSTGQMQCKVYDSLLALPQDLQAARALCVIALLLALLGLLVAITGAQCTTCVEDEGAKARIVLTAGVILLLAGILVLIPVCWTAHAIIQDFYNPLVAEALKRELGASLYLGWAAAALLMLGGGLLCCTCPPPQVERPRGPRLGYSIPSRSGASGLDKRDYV

human Claudin 3 [2] = target: T2, human Claudin 3 (human, UniProt O15551 1-220); test: flow cytometry, CHOK1/H_CLDN3 cells, Ab titrated from 100 nM
T2 construct: whole, on cells; also called CLDN3
T2 sequence (looked up): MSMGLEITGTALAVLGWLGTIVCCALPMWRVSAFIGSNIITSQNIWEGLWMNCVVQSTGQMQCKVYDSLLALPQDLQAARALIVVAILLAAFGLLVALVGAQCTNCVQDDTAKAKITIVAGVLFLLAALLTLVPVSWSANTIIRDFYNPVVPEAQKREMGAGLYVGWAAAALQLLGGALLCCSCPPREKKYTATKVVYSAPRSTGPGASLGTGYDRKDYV
Protocol: (§1) In this example, cell-based binding of hu Abs on human CLDN3 expressing cells were assessed using flow cytometry.
(§2) Briefly, the CHOK1/H_CLDN3 cells were incubated with hu-Abs (from 100 nM, 6 folds dilution, 8 points). After incubation at 4° C. for 60 minutes. Cells were pelleted and washed twice with 2% FBS/PBS buffer, and stained with fluorescent conjugated secondary antibody at 4° C. for 30 minutes. After that the cells were washed twice and resuspended in 80 μL of 2% FBS/PBS buffer. Fluorescent signal of binding was detected using Agilent. The EC50 was calculated using the GraphPad software.

human Claudin 6 [3] = target: T3, human Claudin 6 (human, UniProt P56747 1-220); test: flow cytometry, OVCAR3 cells (endogenous CLDN6), Ab titrated from 100 nM
T3 sequence (looked up): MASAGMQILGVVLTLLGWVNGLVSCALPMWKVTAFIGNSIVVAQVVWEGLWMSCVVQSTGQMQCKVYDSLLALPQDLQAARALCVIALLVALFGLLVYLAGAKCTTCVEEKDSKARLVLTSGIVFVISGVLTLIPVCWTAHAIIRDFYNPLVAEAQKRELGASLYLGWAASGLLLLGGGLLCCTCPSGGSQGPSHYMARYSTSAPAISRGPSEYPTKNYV
Protocol: In this example, FACS binding of chimeric Abs to Ovcar3 and Ov90 cells with claudin 6 endogenous expression were assessed using flow cytometry.
as §2, with “Claudin 6 endogenous expression cell line” for “Briefly, the CHOK1/H_CLDN3 cells”, “chimeric Abs” for “hu-Abs”, “6-fold” for “6 folds”, “points) for 60 minutes” for “points). After incubation”, “C.” for “C. for 60 minutes.”

human Claudin 6 [4] = target: T3, human Claudin 6; test: flow cytometry, HEK293/H_CLDN6 cells, Ab titrated from 100 nM
Protocol: In this example, cell-based binding of humanized antibodies (hu Abs) on human CLDN6 expressing cells were assessed using flow cytometry.
as §2, with “HEK293/H_CLDN6” for “CHOK1/H_CLDN3”

human Claudin 3 [5] = target: T2, human Claudin 3; test: flow cytometry, CHOK1/H_CLDN3 cells
Protocol: as §1, §2

human Claudin 6 [6] = target: T3, human Claudin 6; test: cell-based or functional assay
human Claudin 6 [7] = target: T3, human Claudin 6; test: flow cytometry, HEK293/H_CLDN6 cells, Ab titrated from 100 nM; remark: listed apart in the source
Protocol: (§3) In this example, cell based binding of chimeric Abs on human CLDN6 & CLND9 over-expressing cell line were assessed using flow cytometry.
as §2, with “the” for “the CHOK1/H_CLDN3”, “chimeric Abs” for “hu-Abs”, “6-fold” for “6 folds”, “points) for 60 minutes” for “points). After incubation”, “C.” for “C. for 60 minutes.”, “software (LaJolla, CA).” for “software.”

human Claudin 6 [8] = target: T3, human Claudin 6; test: cell-based or functional assay; remark: listed apart in the source
human Claudin 9 [9] = target: T1, human Claudin 9; test: flow cytometry, HEK293/H_CLDN9 cells, Ab titrated from 100 nM; remark: listed apart in the source
Protocol: as §3
as §2, with “the” for “the CHOK1/H_CLDN3”, “chimeric Abs” for “hu-Abs”, “6-fold” for “6 folds”, “points) for 60 minutes” for “points). After incubation”, “C.” for “C. for 60 minutes.”, “software (LaJolla, CA).” for “software.”

human Claudin 6 [10] = target: T3, human Claudin 6; test: cell-based or functional assay; remark: listed apart in the source
human Claudin 6 [11] = target: T3, human Claudin 6; test: cell-based or functional assay; remark: listed apart in the source
human Claudin 6 [12] = target: T3, human Claudin 6; test: cell-based or functional assay; remark: listed apart in the source

hIgG1 Isotype (antibody)
Top MFI (human Claudin 9 [1]): 140
Top MFI (human Claudin 3 [2]): 128
Top MFI (human Claudin 6 [3]): 126
Top MFI (human Claudin 6 [3]; record 2): 101

B1: 97-C10E1-2-P1.z9 (antibody, V domains shown)
VH: QVQLQQSGAEVKKPGASVKVSCKASGYAFTGYTMNWVRQAPGQNLEWIGLSNPYNAGTIYNQKFKGRVTLTVDKSTSTVYMELLSLRSEDTAVYYCARNYYYGSSYAYYYAMDYWGQGTTVTVSS
VL: DAQMTQSPSSLSASVGDRVTITCRSSTGAVTTSNYANWVQQKPGKAFKGLIGGTNNRAPGVPARFSGSLSGTDAALTISSLQPEDFATYFCALWYSNHWVFGGGTKVEIK
Top MFI (human Claudin 9 [1]): 5810
Top MFI (human Claudin 3 [2]): 297
Top MFI (human Claudin 6 [4]): 159000
binding result (human Claudin 3 [5]): no binding (tested: 100 nM (highest concentration tested))

B2: 97-C10E1-2-P1.z4 (antibody, V domains shown)
VH: QVQLVQSGAEVKKPGASVKVSCKASGYAFTGYTMNWVRQAPGQGLEWIGLSNPYNAGTIYNQKFKGRVTMTVDKSTSTVYMELSSLRSEDTAVYYCARNYYYGSSYAYYYAMDYWGQGTTVTVSS
VL: DAQMTQSPSSLSASVGDRVTITCRSSTGAVTTSNYANWVQQKPGKAFKGLIGGTNNRAPGVPARFSGSLSGTDAALTISSLQPEDFATYFCALWYSNHWVFGGGTKVEIK
Top MFI (human Claudin 9 [1]): 9160
Top MFI (human Claudin 3 [2]): 263
Top MFI (human Claudin 6 [4]): 185000
binding result (human Claudin 3 [5]): no binding (tested: 100 nM (highest concentration tested))

B3: 97-C10E1-2-P1.z7 (antibody, V domains shown)
VH: QVQLQQSGAEVKKPGASVKVSCKASGYAFTGYTMNWVRQAPGQNLEWIGLSNPYNAGTIYNQKFKGRVTLTVDKSTSTVYMELLSLRSEDTAVYYCARNYYYGSSYAYYYAMDYWGQGTTVTVSS
VL: EAVVTQSPATLSVSPGERATLSCRSSTGAVTTSNYANWVQEKPGQAFRGLIGGTNNRAPGIPARFSGSLSGDEATLTISSLQSEDFAVYFCALWYSNHWVFGGGTKVEIK
Top MFI (human Claudin 9 [1]): 1660
Top MFI (human Claudin 3 [2]): 249
Top MFI (human Claudin 6 [4]): 181000
binding result (human Claudin 3 [5]): no binding (tested: 100 nM (highest concentration tested))

B4: 83-F6A6 (antibody, V domains shown)
VH: QVQLQQSAPELARPGASVRMSCKASGYTFTTYTMHWVKQRPGQGLEWIGFIIPSSGYTEYNQNLKDKTTLTADKASSTAYMQLTSLTSEDSAVYYCARQFSLITTGFGYALDYWGQGTSVTVSS
VL: DIVMTQSRKFMSTSVGDRVSITCKASQDVSTAVAWYQQKPGQSPKLLLYWASTRHTGVPDRFTGSGSGTDYTLTISSVQAEDLALYYCQQHYSTPLTFGAGTKLELK
notes: Tested as chimeric antibody
Inhibition Rate (%) (HEK293/H_CLDN6) (human Claudin 6 [6]): 78.6%
Top MFI (human Claudin 6 [3]): 227
Top MFI (human Claudin 6 [7]): 258000
internalization Top RLU (HEK293/H_CLDN6) (human Claudin 6 [8]): 710000 RLU
Top MFI (human Claudin 9 [9]): 23500

B5: 67-C12E11 (antibody, V domains shown)
VH: EVQLQQSGPELVKPGASVKISCKTSGYTFTEYTMHWVKQSHGKSLEWIGGINPNNGGTSYNQKFKGKATLTVDKSSSTAYMELRSLTSEDSAVYYCARGMVVAFYFDSWGQGTTLTVSS
VL: DIQMTQSPASQSASLGESVTITCLASQTIGSWLAWYQQKPGKSPQLLIYAATSLADGVPSRFSGSGSGTKFSFKISSLQAEDFVSYYCQQLYSTPYTFGGGTKLEIK
notes: Tested as chimeric antibody
Inhibition Rate (%) (HEK293/H_CLDN6) (human Claudin 6 [6]): 83.9%
Top MFI (human Claudin 6 [3]): 165
Top MFI (human Claudin 6 [7]): 161000
internalization Top RLU (HEK293/H_CLDN6) (human Claudin 6 [8]): 446000 RLU
Top MFI (human Claudin 9 [9]): 28800

B6: z5-MMAE (antibody, V domains shown)
VH: QVQLVQSGAEVKKPGASVKVSCKASGYAFTGYTMNWVRQAPGQGLEWIGLSNPYNAGTIYNQKFKGRVTMTVDKSTSTVYMELSSLRSEDTAVYYCARNYYYGSSYAYYYAMDYWGQGTTVTVSS
VL: DIVVTQSPSSLSTSVGDRVTITCRSSTGAVTTSNYANWVQEKPGKAFKGLIGGTNNRAPGVPARFSGSLSGDDAALTISSAQPEDFATYFCALWYSNHWVFGGGTKVEIK
modifications: MMAE conjugated to the antibody; residues and drug load not stated
Min cell viability, OV90 (CLDN6 low) (human Claudin 6 [10]): 8%
Min cell viability, OVCAR-3 (CLDN6 mid) (human Claudin 6 [10]): 3.71%
Min cell viability, PA-1 (CLDN6 high) (human Claudin 6 [10]): 4.88%
cytotoxicity IC50 (nM), OV90 cells, 5 days (human Claudin 6 [11]): 0.76 nM
cytotoxicity IC50 (nM), OVCAR3 cells, 5 days (human Claudin 6 [11]): 0.13 nM
cytotoxicity IC50 (nM), PA-1 cells, 5 days (human Claudin 6 [11]): 0.11 nM
cytotoxicity IC50 (nM), CLDN6 High Exp HEK293 cells, 5 days (human Claudin 6 [12]): 0.1 nM

B7: z5-Eribulin (antibody, V domains shown)
VH: QVQLVQSGAEVKKPGASVKVSCKASGYAFTGYTMNWVRQAPGQGLEWIGLSNPYNAGTIYNQKFKGRVTMTVDKSTSTVYMELSSLRSEDTAVYYCARNYYYGSSYAYYYAMDYWGQGTTVTVSS
VL: DIVVTQSPSSLSTSVGDRVTITCRSSTGAVTTSNYANWVQEKPGKAFKGLIGGTNNRAPGVPARFSGSLSGDDAALTISSAQPEDFATYFCALWYSNHWVFGGGTKVEIK
modifications: eribulin conjugated to the antibody; residues and drug load not stated
cytotoxicity IC50 (nM), OV90 cells, 5 days (human Claudin 6 [11]): 4.66 nM
cytotoxicity IC50 (nM), OVCAR3 cells, 5 days (human Claudin 6 [11]): 0.11 nM
cytotoxicity IC50 (nM), PA-1 cells, 5 days (human Claudin 6 [11]): 0.46 nM
cytotoxicity IC50 (nM), CLDN6 High Exp HEK293 cells, 5 days (human Claudin 6 [12]): 0.1 nM

B8: 85-H10A5 (antibody, V domains shown)
VH: EVQLQQSGPELVKPGASVKISCKTSGYTFTEYPMHWVKQSHEKSLEWIGGINPKNGDANSNQKFKGKATLTVDKSSSTAYMELRSLTSEDSAVYYCARGWLLLFDVWGAGTMVTVSS
VL: DIQMTQSSSSFSVSLGDRVTISCKASEDIYNRLAWYQQKPGNAPRLLISGATSLETGIPSRFSGSGSGKDYTLSITTLQTEDVAAYYCQQYWSSPLTFGAGTKLELR
notes: Tested as chimeric antibody
Top MFI (human Claudin 6 [7]): 285000
Top MFI (human Claudin 9 [9]): 113000

B9: 59-H12C5 (antibody, V domains shown)
VH: EVQLVESGGGLVQPGGSLKLSCAASGFTFSSHGMSWVRQTADRGLELVASINSNGGRTYYPDSMKGRFTISRDNAKNTLYLQLSSLQPEDTALYYCACYYDNTYYAMDYWGQGTSLTVSS
VL: QIVLTQSPAIMSASLGERVTMTCTASSSVSSSSLHWYQQKPGSSPKLWIYTTSTLASGVPARFSGSGSGTSYSLTISSMEAEDAATYYCHQYHRSPPTFGGGTKLEIK
notes: Tested as chimeric antibody
Top MFI (human Claudin 6 [7]): 379000
Top MFI (human Claudin 9 [9]): 341000

B10: 23-B2F11 (antibody, V domains shown)
VH: EVQLQQSGPELVKPGASVKISCKTSGYTFTEYTMHWVKQSHGRSLEWIGGINPNNGDTIYNQKFKGKATLTVDKSSSTAYMELRSLTSEDSAVYYCARRGGYGNFNFDYWGQGTTLTVSS
VL: DIQMTQSSSSFSVSLRDRVTITCKASEDIYNRLAWYQQKPGNAPRLLISGATSLETGVPSRFSGSGSGKDYTLSITSLQTEDVATYYCQQYWSSPYTFGGGTKVEIK
notes: Tested as chimeric antibody
Top MFI (human Claudin 6 [7]): 117000
Top MFI (human Claudin 9 [9]): 93300
